Assay results from publication PMC8443317.

Target: recombinant human angiotensin-converting enzyme 2 (ACE2) receptor, biotinylated (human) (UniProt Q9BYF1)
Test: SPR

Substance | Kd | koff | kon
SARS-CoV-2 spike S1 variant D614G (domain or fragment) | 42.2 nM | 0.00578 s⁻¹ | 138000 M⁻¹ s⁻¹
recombinant original SARS-CoV-2 spike S1 protein (domain or fragment) | 10.5 nM | – | –
